The text below walks through data of patent US20250186614A1, “COMPACT DRUG RESPONSIVE DOMAINS FOR REGULATION OF FUNCTION/ABUNDANCE AND DELIVERY OF POLYPEPTIDE PAYLOADS” (OBSIDIAN THERAPEUTICS, INC., priority 2022, published 2025).

Where two headings read alike, the source gives them in different places.

The EC90 is the concentration needed for an effect of 90%.

This assay is described as follows: Example 4: dose response of FKBP constructs 160-255, Ec50, Ec90 and fold change (raw and normalized to mCherry). The note with it: for FC (fold change): fold change during initial analysis. The format is cell-based. Here is the method: Additional experiments were performed for constructs FKBP-160-292.
[1] abbreviates: FKBP constructs 160-255, not normalized, read-out: EC90.
The mark [2] stands for this setting: normalized to mCherry, read-out: EC90 (Norm).

B1: FKBP-217 (protein)
chain: HCPIKSRKGDVLHAHYTGKLYDGTEFDSSLPRNQPFVFSLGTGERIKGWDQGLLGMCEGEWRKLVIPSELGYGERGWPPKIPGGATLVFEVELLYIER
modifications: Description of sequence: Construct Name: FKBP-217; Mutation(s): Q72R Q84E A117W V85R DRD M54A E61Y K101W K135Y
Consider B1, for which the “FC (fold change)” value amounted to 36.8. In addition, under setting [1], the EC90 amounted to 16100 nM. The EC90 under setting [2] stood at 17500 nM.

B2: FKBP-219 (protein)
chain: HCPIKSRKGDVLHAHYTGKLGDGTEFDSSLPRNQPFVFSLGTGERIKGWDQGLLGMCEGEGRKLVIPSELGYGERGWPPKIPGGATLVFEVELLEIER
modifications: Description of sequence: Construct Name: FKBP-219; Mutation(s): Q72R Q84E A117W V85R DRD M54A E61G K101G K135E
B2: the “FC (fold change)” value is reported as 5.4.

B3: FKBP-226: FKBP13 DRD-AcGFP construct of Table 10 (protein)
chain: HCRIKSRKGDVLHAHYTGKLEDGTEFDSSLPRNQPFVFSLGTGERIKGWDQGLLGMCEGEKRKLVIPSELGYGERGWPPKIPGGATLVFEVELLKIER
modifications: Description of sequence: Construct Name: FKBP-226; Mutation(s): Q72R Q84E A117W V85R DRD P43R M54A
For B3, the “FC (fold change)” value amounted to 31.5. Further, the EC90 under setting [1] is 44.6 nM. Also, under setting [2], the EC90 came out at 47 nM.

B4: FKBP-223: FKBP13 DRD-AcGFP construct of Table 10 (protein)
chain: HCWIKSRKGDVLHAHYTGKLEDGREFDSSLPRNQPFVFSLGTGERIKGWDQGLLGMCEGEKRKLVIPSELGYGERGWPPKIPGGATLVFEVELLKIER
modifications: Description of sequence: Construct Name: FKBP-223; Mutation(s): Q72R Q84E A117W V85R DRD M54A P4W T25R
In the case of B4, the “FC (fold change)” value came out at 52.5. Also, the EC90 under setting [1] was found to be 674 nM. The EC90 under setting [2] was found to be 713 nM.

B5: FKBP-227 (protein)
chain: HCPIKSRKGDVLHMHYTGKLEDGTEFDSSLPRNQPFVFSLGTGEVIKGWDQGLLGMCEGEKRKLVIPSELGYGERGWPPKIPGGATLVFEVELLKIRR
modifications: Description of sequence: Construct Name: FKBP-227; Mutation(s): Q72R Q84E A117W DRD E137R
Regarding B5, the “FC (fold change)” value came to 29.0. Besides, the EC90 under setting [1] amounted to 293 nM. In addition, the EC90 under setting [2] came out at 278 nM.

B6: FKBP-218 (protein)
chain: HCPIKSRKGDVLHAHYTGKLGDGTEFDSSLPRNQPFVFSLGTGEVIKGWDQGLLGMCEGEGRKLVIPSELGYGERGWPPKIPGGATLVFEVELLEIER
modifications: Description of sequence: Construct Name: FKBP-218; Mutation(s): Q72R Q84E A117W DRD M54A E61G K101G K135E
As for B6, the “FC (fold change)” value stood at 4.46.

B7: FKBP-221 (protein)
chain: HCPIKSRKGDVLHAHYTGKLEDGGEFDSSLPRNQPFVFSLGTGERIKGWDQGLLGMCEGEKRKLVIPSELGYGERGWPPKIPGGATLVFEVELLKIER
modifications: Description of sequence: Construct Name: FKBP-221; Mutation(s): Q72R Q84E A117W V85R DRD M54A T25G
Take B7: the “FC (fold change)” value was determined as 41.8. Moreover, under setting [1], the EC90 was found to be 495 nM. Moreover, the EC90 under setting [2] was 567 nM.

B8: FKBP-163 (protein)
chain: HCPIKSRKGDVLHAHYTGKLEDGTEFDSSLPRNQPFVFSLGTGERIKGWDQGLLGVCEGEKRKLVIPSELGYGERGWPPKIPGGATLVFEVELLKIER
modifications: Description of sequence: Construct Name: FKBP-163; Mutation(s): Q72R Q84E A117W DRD M54A M96V V85R
As to B8, the “FC (fold change)” value came to 29.4. For the same molecule, the EC90 under setting [1] turned out to be 756 nM. Further, under setting [2], the EC90 was 1010 nM.

B9: FKBP-229: FKBP13 DRD-AcGFP construct of Table 10 (protein)
chain: HCPIKSRKGDVLHAHYTGKLEDGTEFDSSLPRNQPFVFSLGTGERIKGWDQGLLGMCEGEKRKLVIPSELGYGERGWPPKIPGGATLVFEVELLKIRR
modifications: Description of sequence: Construct Name: FKBP-229; Mutation(s): Q72R Q84E A117W V85R DRD E137R M54A
As for B9, the “FC (fold change)” value is 54.0. Moreover, the EC90 under setting [1] was found to be 484 nM. The EC90 under setting [2] was determined as 455 nM.

B10: FKBP-164 (protein)
chain: HCPIKSRKGDVLHAHYTGKLEDGTEFDSSLPRNQPFVFSLGTGERIKGWDQGLLGMCEGEKRKLVIPSELGYGERGWVPKIPGGATLVFEVELLKIER
modifications: Description of sequence: Construct Name: FKBP-164; Mutation(s): Q72R Q84E A117W DRD M54A P118V V85R
With B10, the “FC (fold change)” value came to 42.7. In addition, under setting [1], the EC90 was 580 nM. In addition, under setting [2], the EC90 came to 621 nM.

B11: FKBP-220: FKBP13 DRD-AcGFP construct of Table 10 (protein)
chain: HCPIKSRKGDVLHMHYTGKLEDGGEFDSSLPRNQPFVFSLGTGERIKGWDQGLLGMCEGEKRKLVIPSELGYGERGWPPKIPGGATLVFEVELLKIER
modifications: Description of sequence: Construct Name: FKBP-220; Mutation(s): Q72R Q84E A117W V85R DRD T25G
In the case of B11, the “FC (fold change)” value is given as 34.2. Further, under setting [1], the EC90 was determined as 156 nM. In addition, under setting [2], the EC90 is 165 nM.

B12: FKBP-222 (protein)
chain: HCWIKSRKGDVLHMHYTGKLEDGREFDSSLPRNQPFVFSLGTGEVIKGWDQGLLGMCEGEKRKLVIPSELGYGERGWPPKIPGGATLVFEVELLKIER
modifications: Description of sequence: Construct Name: FKBP-222; Mutation(s): Q72R Q84E A117W DRD P4W T25R
In the case of B12, the “FC (fold change)” value was found to be 40.6. Besides, the EC90 under setting [1] is 612 nM. The EC90 under setting [2] turned out to be 602 nM.

B13: FKBP-225 (protein)
chain: HCRIKSRKGDVLHMHYTGKLEDGTEFDSSLPRNQPFVFSLGTGERIKGWDQGLLGMCEGEKRKLVIPSELGYGERGWPPKIPGGATLVFEVELLKIER
modifications: Description of sequence: Construct Name: FKBP-225; Mutation(s): Q72R Q84E A117W V85R DRD P43R
Turning to B13, the “FC (fold change)” value is 20.6. Besides, under setting [1], the EC90 was found to be 25.4 nM. Moreover, the EC90 under setting [2] came to 26 nM.

B14: FKBP-224 (protein)
chain: HCRIKSRKGDVLHMHYTGKLEDGTEFDSSLPRNQPFVFSLGTGEVIKGWDQGLLGMCEGEKRKLVIPSELGYGERGWPPKIPGGATLVFEVELLKIER
modifications: Description of sequence: Construct Name: FKBP-224; Mutation(s): Q72R Q84E A117W DRD P43R
With B14, the “FC (fold change)” value worked out at 5.2. In addition, the EC90 under setting [1] amounted to 78.6 nM. Besides, the EC90 under setting [2] came out at 88.7 nM.
